Results: PMC3390797, “Regulation of ASIC channels by a stomatin/STOML3 complex located in a mobile vesicle pool in sensory neurons” (Open Biology, 2012)

B1: EYFP-tagged ASIC2b (natural protein, rat, UniProt Q62962-2 1-563, looked up)
chain: MSRSGGARLPATALSGPGRFRMAREQPAPVAVAAARQPGGDRSGDPALQGPGVARRGRPSLSRTKLHGLRHMCAGRTAAGGSFQRRALWVLAFCTSLGLLLSWSSNRLLYWLSFPSHTRVHREWSRQLPFPAVTVCNNNPLRFPRLSKGDLYYAGHWLGLLLPNRTARPLVSELLRGDEPRRQWFRKLADFRLFLPPRHFEGISAAFMDRLGHQLEDMLLSCKYRGELCGPHNFSSVFTKYGKCYMFNSGEDGKPLLTTVKGGTGNGLEIMLDIQQDEYLPIWGETEETTFEAGVKVQIHSQSEPPFIQELGFGVAPGFQTFVATQEQRLTYLPPPWGECRSSEMGLDFFPVYSITACRIDCETRYIVENCNCRMVHMPGDAPFCTPEQHKECAEPALGLLAEKDSNYCLCRTPCNLTRYNKELSMVKIPSKTSAKYLEKKFNKSEKYISENILVLDIFFEALNYETIEQKKAYEVAALLGDIGGQMGLFIGASLLTILELFDYIYELIKEKLLDLLGKEEEEGSHDENMSTCDTMPNHSETISHTVNVPLQTALGTLEEIAC
notes: source: CHO cells, transiently transfected, in live cells
B2: EYFP-tagged ASIC1b (natural protein, mouse, UniProt Q6NXK8-2 1-559, looked up)
chain: MPIQIFCSVSFSSGEEAPGSMGDIWGPHHHHRQQQDSSESEEEEEKEKESGMELDEGDSPRDLVAFANSCTLHGASHVFVEGGPGPRQALWAVAFVIALGAFLCQVGDRVAYYLSYPHVTLLDEVATTELVFPAVTFCNTNAVRLSQLSYPDLLYLAPMLGLDESDDPGVPLAPPGPEAFSGEPFNLHRFYNRSCHRLEDMLLYCSYCGGPCGPHNFSVVFTRYGKCYTFNSGQDGRPRLKTMKGGTGNGLEIMLDIQQDEYLPVWGETDETSFEAGIKVQIHSQDEPPFIDQLGFGVAPGFQTFVSCQEQRLIYLPSPWGTCNAVTMDSDFFDSYSITACRIDCETRYLVENCNCRMVHMPGDAPYCTPEQYKECADPALDFLVEKDQEYCVCEMPCNLTRYGKELSMVKIPSKASAKYLAKKFNKSEQYIGENILVLDIFFEVLNYETIEQKKAYEIAGLLGDIGGQMGLFIGASILTVLELFDYAYEVIKHRLCRRGKCQKEAKRNSADKGVALSLDDVKRHNPCESLRGHPAGMTYAANILPHHPARGTFEDFTC
notes: as for B1
B3: EYFP-tagged ASIC3 (natural protein, rat, UniProt O35240 1-533, looked up)
chain: MKPRSGLEEAQRRQASDIRVFASSCTMHGLGHIFGPGGLTLRRGLWATAVLLSLAAFLYQVAERVRYYGEFHHKTTLDERESHQLTFPAVTLCNINPLRRSRLTPNDLHWAGTALLGLDPAEHAAYLRALGQPPAPPGFMPSPTFDMAQLYARAGHSLEDMLLDCRYRGQPCGPENFTVIFTRMGQCYTFNSGAHGAELLTTPKGGAGNGLEIMLDVQQEEYLPIWKDMEETPFEVGIRVQIHSQDEPPAIDQLGFGAAPGHQTFVSCQQQQLSFLPPPWGDCNTASLDPDDFDPEPSDPLGSPRPRPSPPYSLIGCRLACESRYVARKCGCRMMHMPGNSPVCSPQQYKDCASPALDAMLRKDTCVCPNPCATTRYAKELSMVRIPSRASARYLARKYNRSESYITENVLVLDIFFEALNYEAVEQKAAYEVSELLGDIGGQMGLFIGASLLTILEILDYLCEVFQDRVLGYFWNRRSAQKRSGNTLLQEELNGHRTHVPHLSLGPRPPTTPCAVTKTLSASHRTCYLVTRL
notes: as for B1
B4: EYFP-tagged ASIC1a (natural protein, mouse, UniProt Q6NXK8-1 1-526, looked up)
chain: MELKTEEEEVGGVQPVSIQAFASSSTLHGLAHIFSYERLSLKRALWALCFLGSLAVLLCVCTERVQYYFCYHHVTKLDEVAASQLTFPAVTLCNLNEFRFSQVSKNDLYHAGELLALLNNRYEIPDTQMADEKQLEILQDKANFRSFKPKPFNMREFYDRAGHDIRDMLLSCHFRGEACSAEDFKVVFTRYGKCYTFNSGQDGRPRLKTMKGGTGNGLEIMLDIQQDEYLPVWGETDETSFEAGIKVQIHSQDEPPFIDQLGFGVAPGFQTFVSCQEQRLIYLPSPWGTCNAVTMDSDFFDSYSITACRIDCETRYLVENCNCRMVHMPGDAPYCTPEQYKECADPALDFLVEKDQEYCVCEMPCNLTRYGKELSMVKIPSKASAKYLAKKFNKSEQYIGENILVLDIFFEVLNYETIEQKKAYEIAGLLGDIGGQMGLFIGASILTVLELFDYAYEVIKHRLCRRGKCQKEAKRNSADKGVALSLDDVKRHNPCESLRGHPAGMTYAANILPHHPARGTFEDFTC
notes: as for B1
B5: EYFP-tagged ASIC2a (natural protein, rat, UniProt Q62962-1 1-512, looked up)
chain: MDLKESPSEGSLQPSSIQIFANTSTLHGIRHIFVYGPLTIRRVLWAVAFVGSLGLLLVESSERVSYYFSYQHVTKVDEVVAQSLVFPAVTLCNLNGFRFSRLTTNDLYHAGELLALLDVNLQIPDPHLADPTVLEALRQKANFKHYKPKQFSMLEFLHRVGHDLKDMMLYCKFKGQECGHQDFTTVFTKYGKCYMFNSGEDGKPLLTTVKGGTGNGLEIMLDIQQDEYLPIWGETEETTFEAGVKVQIHSQSEPPFIQELGFGVAPGFQTFVATQEQRLTYLPPPWGECRSSEMGLDFFPVYSITACRIDCETRYIVENCNCRMVHMPGDAPFCTPEQHKECAEPALGLLAEKDSNYCLCRTPCNLTRYNKELSMVKIPSKTSAKYLEKKFNKSEKYISENILVLDIFFEALNYETIEQKKAYEVAALLGDIGGQMGLFIGASLLTILELFDYIYELIKEKLLDLLGKEEEEGSHDENMSTCDTMPNHSETISHTVNVPLQTALGTLEEIAC
notes: also called ASIC2a-YFP; source: CHO cells, transiently transfected, in live cells
B6: EYFP-tagged ASIC4 (natural protein, mouse, UniProt Q7TNS7 1-539, looked up)
chain: MPIEIVCKIKFAEEDAKPKEKEAGDEQSLLGAAQGPAAPRDLATFASTSTLHGLGRACGPGPHGLRRTLWALALLTSLAAFLYQAASLARGYLTRPHLVAMDPAAPAPVAGFPAVTLCNINRFRHSALSDADIFHLANLTGLPPKDRDGHRAAGLRYPEPDMVDILNRTGHQLADMLKSCNFSGHHCSASNFSVVYTRYGKCYTFNADPQSSLPSRAGGMGSGLEIMLDIQQEEYLPIWRETNETSFEAGIRVQIHSQEEPPYIHQLGFGVSPGFQTFVSCQEQRLTYLPQPWGNCRAESELREPELQGYSAYSVSACRLRCEKEAVLQRCHCRMVHMPGNETICPPNIYIECADHTLDSLGGGSEGPCFCPTPCNLTRYGKEISMVKIPNRGSARYLARKYNRNETYIRENFLVLDVFFEALTSEAMEQQAAYGLSALLGDLGGQMGLFIGASILTLLEILDYIYEVSWDRLKRVWRRPKTPLRTSTGGISTLGLQELKEQSPCPSRGRAEGGGASSLLPNHHHPHGPPGSLFEDFAC
notes: as for B1

biological target: T1, Strep-tagged STOML3-AmCyan1 (stomatin-like protein-3, wild type) (mouse, UniProt Q6PE84 1-287); test: FRET or BRET; three-cube FRET imaging of CHO cells co-expressing the AmCyan1 (CFP) and EYFP fusions; apparent FRET efficiency, calibrated with two fluorophore-tandem constructs; conditions: partners not purified
T1 construct: Stomatin-like protein-3 (STOML3), mouse; Made from the STOML3-EGFP plasmid 'described previously' by cloning into pAmCyan1-N1 with a Strep tag; also called STOML3-Strep; STOML3-CFP; source: CHO cells, transiently transfected; in lysate (co-IP) and in live cells (FRET)
T1 sequence (looked up): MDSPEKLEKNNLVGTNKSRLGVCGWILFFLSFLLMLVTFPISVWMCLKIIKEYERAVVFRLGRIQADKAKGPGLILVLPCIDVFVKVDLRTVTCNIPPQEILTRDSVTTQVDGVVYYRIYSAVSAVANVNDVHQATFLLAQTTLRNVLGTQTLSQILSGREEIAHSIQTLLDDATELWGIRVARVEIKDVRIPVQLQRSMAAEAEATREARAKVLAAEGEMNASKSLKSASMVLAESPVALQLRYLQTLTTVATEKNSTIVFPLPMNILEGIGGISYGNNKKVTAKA

apparent FRET efficiency (mean, cell-averaged) [%] | Binder
13.1 ± 0.49 | B1
13.9 ± 0.73 | B2
15.5 ± 0.67 | B3
14.4 ± 0.51 | B4
13.4 ± 0.52 | B5
15.4 ± 0.65 | B6
